Values of other authors as cited in paper PMC6070697.

Legend:
Test in all cases: kinetics
Conditions in all cases: enzyme turning over with acetyl-CoA and an amine substrate
[1] = target: Glu34 (UniProt position 34, HYYPEEPLTAG)
[2] = tested on: Glu26
[3] = target: Glu47 (UniProt position 82, FFFKDEPLNTF)

Which pKa [1] does the source give for “Agmatine N-acetyltransferase (Dm-AgmNAT; formerly Dm-AANATL8) (Drosophila melanogaster)” here?
Its pKa is “approximately pH 7.5”.

With “Arylalkylamine N-acetyltransferase like 7 (Dm-AANATL7) (Drosophila melanogaster)” as the substance, how does the pKa [2] read?
The pKa was “approximately pH 7.5”.

For “Arylalkylamine N-acetyltransferase A (Dm-AANATA; dopamine N-acetyltransferase) (Drosophila melanogaster)”, which pKa [3] is on record?
Its pKa is “approximately pH 7.5”.
